Data published in paper PMC4605427.

How the values were obtained:
[1] = molecular target: GST-pCD3γCD fusion protein (UniProt P09693); assay: ELISA
[2] = molecular target: phosphorylated cytosolic domain of the TCR γ-chain (pCD3γCD) (UniProt P09693); assay: BLI

Substance | fold concentration needed, against YY, to compete similarly [1] [fold] | KD2 (weak set), fold against its KD1 [2] [fold] | koff1, ratio against AADN and tSH2 [2] [fold] | koff2 (weak set), fold against its koff1 [2] [fold] | kon1, fold against AADN and tSH2 [2] [fold] | kon2 (weak set), fold against its kon1 [2] [fold] | Kd [2] [nM]
ZAP-70 phenylalanine mutant Y315/Y319F, kinase-dead (FFDN) (from UniProt P43403 1-619) (enzyme) | 3 | 10 | 0.5 | 20 | 2 | 2 | 
kinase-dead D461N mutant of ZAP-70 (YYDN) (from UniProt P43403 1-619) (enzyme) |  | 10 | 0.5 | 20 | 2 | 2 | 
recombinant tSH2 module of ZAP-70 (aa 1–256) (from UniProt P43403 1-256) (domain or fragment) |  |  |  |  |  |  | 10
